Here are results for 1 substance from paper PMC7746858.

The target of the test is human complement C1q (human). In words: ELISA. (In an ELISA, binding on a coated surface is turned into a signal by an enzyme label.)

The substance “construct HLZ (6D8 heavy and light chains, C-terminal ZE3 fusion, no epitope tag) (antibody)” returned a fold lower C1q binding than HLZd of 10 fold.
